Laboratory results from patent publication US20260356955 (published 2026).
Like-named read-outs stand apart in the source and are kept apart here.

What was measured:
human KLRB1 ECD [1] = target: human KLRB1 ECD (human); assay: SPR
human KLRB1 ECD [2] = target: human KLRB1 ECD (human); assay: SPR; remark: listed apart in the source
human KLRB1 ECD [3] = target: human KLRB1 ECD (human); assay: SPR; remark: listed apart in the source
human KLRB1 on CHO-K1 [4] = target: human KLRB1 on CHO-K1 (human); assay: competition, CLEC2D, FACS
human KLRB1 on CHO-K1 (human), sequence (chain, as listed by the source): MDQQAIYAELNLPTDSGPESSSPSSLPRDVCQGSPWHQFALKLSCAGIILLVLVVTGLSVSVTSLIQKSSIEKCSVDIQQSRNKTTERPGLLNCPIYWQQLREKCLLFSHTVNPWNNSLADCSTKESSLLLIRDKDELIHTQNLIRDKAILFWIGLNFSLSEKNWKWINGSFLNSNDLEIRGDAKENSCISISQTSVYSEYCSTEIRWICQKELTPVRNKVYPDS

cynomolgus KLRB1 ECD [5] = target: T1, cynomolgus KLRB1 ECD (cynomolgus); assay: SPR
T1 chain: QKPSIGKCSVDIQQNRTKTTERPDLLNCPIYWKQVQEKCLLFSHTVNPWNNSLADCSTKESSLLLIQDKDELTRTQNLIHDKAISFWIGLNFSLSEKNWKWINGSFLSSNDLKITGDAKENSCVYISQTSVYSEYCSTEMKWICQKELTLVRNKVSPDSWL

human KLRB1 ECD [6] = target: human KLRB1 ECD (human); assay: ELISA
cynomolgus KLRB1 ECD [7] = target: T1, cynomolgus KLRB1 ECD; assay: ELISA
[8] = target: T2, cynomolgus KLRB1 on CHO-K1 (cynomolgus); assay: FACS
T2 chain: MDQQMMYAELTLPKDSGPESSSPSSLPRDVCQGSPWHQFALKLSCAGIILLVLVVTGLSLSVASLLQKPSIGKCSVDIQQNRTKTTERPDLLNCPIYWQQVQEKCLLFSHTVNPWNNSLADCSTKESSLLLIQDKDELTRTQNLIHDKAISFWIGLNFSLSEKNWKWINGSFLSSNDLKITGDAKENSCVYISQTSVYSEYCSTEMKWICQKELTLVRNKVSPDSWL

human KLRB1 ECD [9] = target: human KLRB1 ECD (human); assay: SPR; remark: listed apart in the source
human KLRB1 on CHO-K1 [10] = target: human KLRB1 on CHO-K1 (human); assay: FACS
human KLRB1 ECD [11] = target: human KLRB1 ECD (human); assay: ELISA; remark: listed apart in the source
[12] = target: T2, cynomolgus KLRB1 on CHO-K1; assay: FACS
human KLRB1 on CHO-K1 [13] = target: human KLRB1 on CHO-K1 (human); assay: FACS; remark: listed apart in the source
human KLRB1 ECD [14] = target: human KLRB1 ECD (human); assay: SPR; remark: listed apart in the source

human KLRB1 ECD (human), sequence (chain, as listed by the source): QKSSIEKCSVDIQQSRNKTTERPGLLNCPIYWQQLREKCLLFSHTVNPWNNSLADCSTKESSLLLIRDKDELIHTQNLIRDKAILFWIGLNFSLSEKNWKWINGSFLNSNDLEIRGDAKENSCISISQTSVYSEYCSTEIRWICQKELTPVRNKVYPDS

B1: Hu22F10G3-3.4 (antibody, V domains shown)
VH: QVQLQESGPGLVKPSQTLSLTCTVSGYSLTSDFAWNWIRQHPGKGLEWMGDIRYSGSTDYNPSLKGRSTISRDTSKNQFSLKLSSVTAADTAVYYCARGGYYGYDEGYPMDYWGQGTLVTVSS
VL: DIVMTQSPDSLAVSLGERATISCRASESVDVYGNSFMHWYQQKPGQPPKLLIYLAFNLKSGVPARFSGSGSGTDFTLTISSLQAEDVATYYCQQNNEDPFTFGQGTKLEIK
With B1 the Kd (human KLRB1 ECD [1]) was 0.129 nM and the Kd (human KLRB1 ECD [2]) was 0.12 nM.

B2: Hu22F10G3-1.1 (antibody, V domains shown)
VH: QVQLQESGPGLVKPSQTLSLTCTVSGYSLTSDFAWNWIRQHPGKGLEWIGDIRYSGSTDYNPSLKGRVTISVDTSKNQFSLKLSSVTAADTAVYYCARGGYYGYDEGYPMDYWGQGTLVTVSS
VL: DIVMTQSPDSLAVSLGERATINCRASESVDVYGNSFMHWYQQKPGQPPKLLIYLAFNLKSGVPDRFSGSGSGTDFTLTISSLQAEDVAVYYCQQNNEDPFTFGQGTKLEIK
For B2, the Kd (human KLRB1 ECD [1]) was 0.134 nM and the Kd (human KLRB1 ECD [2]) was 0.124 nM.

B3: 22F10G3 chimeric (antibody, V domains shown)
VH: DVQLQESGPGQVKPSQSLSLTCTVTGYSLTSDFAWNWIRQFPGNRLEWMGDIRYSGSTDYNPSLKGRSSITRDTSKNQFFLQLNSVTTEDTATYYCARGGYYGYDEGYPMDYWGQGTSVTVSS
VL: NIVLTQSPASLAVSLGQRATISCRASESVDVYGNSFMHWYQQKTGQPPKLLIYLAFNLKSGVPARFSGSGSRTDFTLTIDPVEADDAATYYCQQNNEDPFTFGSGTKLEIK
B3 gave a Kd (human KLRB1 ECD [1]) of 0.0429 nM and a Kd (human KLRB1 ECD [2]) of 0.0665 nM.

B4: 92E12F2 (antibody, V domains shown)
VH: DVQLQESGPGLVKPSQSLSLTCSVTGYSITSGYYWNWIRQFPGNKLEWLGYISYDGSNNDNPSLTNRISISRDTSRNQFFLKFNSVTTDDSATYYCARGDFYGYVYWGQGTTLTVSS
VL: DIVLTQSPASLAVSLGQRATISCRASKSVSSSGYTYLHWYQQKPGQPPKLLIYLTSNLDSGVPARFSGSGSGTDFTLNIHPVEEEDAATYYCQHSRELPRTFGGGTKLEIK
B4 showed a Kd (human KLRB1 ECD [3]) of 3.33 nM.

B5: 57E2E4 chimeric (antibody, V domains shown)
VH: DVQLQESGPGLVKPSQSLSLTCSVTGYSISSGYYWNWIRQFPGNKLEWMAYISYDGSNNYNPSLKNRVSITRDTSKNQFFLRLNSVTAEDTATYYCTRGDFYGYVYWGQGTTLTVSL
VL: DIVLTQSPASLAVSLGQRATISCRASKRVSTSDYSYMHWYQQKPGQPPKLLIYLASNLESGVPARFSGSGSGTDFTLNIHPVEEEDAATYYCQHSREFPRTFGGGTKLEIK
B5 was tested, and the Kd (human KLRB1 ECD [3]) was 0.575 nM.

B6: 66G9C11 (antibody, V domains shown)
VH: HVQLQQSGPELVRPGASVKLSCKASGYIFFTFWMNWVKQRPGQGLEWIGQIFPASGSTNYNEMFEGKATLTVDTSSSTAYMQLSSLTSEDSAVYYCASLERAWFAYWGQGTLVTVSA
VL: DIVLTQSPATLSVTPGDRVSLSCRASQSINNYLHWYQQKSHESPRLLIKYASQSISGIPSRFSGSGSGADFTLSINSVETEDFGMYFCQQSNSWPPTFGGGTKLEIK
With B6 the Kd (human KLRB1 ECD [3]) was 6.38 nM.

B7: Hu47A5H2-07 (antibody, V domains shown)
VH: QVQLVQSGAEVKKPGASVKVSCKASGYSFTGYWMHWVRQAPGQGLEWMGMIHPSDSETRLNQKFKDRVTMTVDTSTSTVYMELSSLRSEDTAVYYCASEGLRRGSFAYWGQGTLVTVSS
VL: DIVLTQSPDSLAVSLGERATINCRASESVDNYGMTFMSWFQQKPGQPPKLLIYAASNQGSGVPDRFSGSGSGTDFTLTISSLQAEDVAVYYCQQSKEVPYTFGQGTKLEIK
B7 was tested, and the IC50 (human KLRB1 on CHO-K1 [4]) was 2.32 nM, the Kd (cynomolgus KLRB1 ECD [5]) was 3.25 nM and the EC50 (human KLRB1 ECD [6]) was 0.0134 nM. It also gave an EC50 (cynomolgus KLRB1 ECD [7]) of 0.0108 nM, an EC50 [8] of 10.8 nM and a Kd (human KLRB1 ECD [9]) of 1.04 nM. For the same binder, the EC50 (human KLRB1 on CHO-K1 [10]) was 2.35 nM.

B8: 50A8F2 chimeric (antibody, V domains shown)
VH: QIQLQQSGPELVKPGASVKISCKASGYTFIDYYINWVKQKPGQGLEWIGWIFPGSGHTKYNENFKGKATLTVDTSSSTAYMHLSSLTSEDTAVYFCARGDRSALGYFDYWGQGSTLTVSS
VL: QIVLTQSPAIMSASLGERVTMTCTASSSVSSTYLHWYQQKPGSSPKLWIYSTSNLASGVPARFSGSGSGTSYSLTFSSMEAEDAATYYCHQYHRSPLTFGAGTKLELK
In the case of B8, the EC50 (human KLRB1 ECD [11]) is reported as 0.0252 nM, the binding result [12] is reported as “no binding” and the Kd (human KLRB1 ECD [3]) is reported as 0.0521 nM. For the same binder, the EC50 (human KLRB1 on CHO-K1 [13]) was 5.87 nM and the Kd (human KLRB1 ECD [14]) was 0.229 nM.

B9: 39C5D6 (antibody, V domains shown)
VH: QVQLKESGPGLVAPSQSLSITCTVSGFSLTDYGVNWVRQTPGKGLEWLGMIWGDGSTDYNLPLKSRLSITKDNSKSQVFLKMNSLQTDDTARYYCARTYANYHYWYFDVWGAGTTVTVSS
VL: DIQMTQSPASLSASVGETVTITCRASGNIHNYLAWYQQKQGKSPQLLVYNAKTLEDGVPSRFSGSGSGTQYSLKINSLQPDDFGNYFCQHFWSTPYTFGGGTKLEIK
Binder B9 has a Kd (human KLRB1 ECD [3]) of 1.21 nM.

B10: 37G6A7 (antibody, V domains shown)
VH: QVQLKESGPGLVAPSQSLSITCTVSGFSLTDYGVNWVRQPPGKGLEWLGMIWGDGSTDYNSALKSRLTISKDNSKSQVFLKMNSLQTDDTARYYCARTYGTYHYWYFDVWGAGTTVTVSS
VL: DIQMTQSPASLSASVGETVTITCRASGNIHNYLAWYQQKQGKSPQLLVYIAKTLADGVPSRFSGSGSGTQYSLKINSLQPEDFGTYYCQHFWSTPYTFGGGTKLEIK
With B10 the Kd (human KLRB1 ECD [3]) was 23.3 nM.

B11: 7B6C7 chimeric (antibody, V domains shown)
VH: QVQLKESGPGLVAPSQSLSITCTVSGFSLNDYGVNWVRQPPGKALEWLGMIWGDGSTDYNSALKSRLTITKDNSKSQVFLKMNSLHTDDTARYFCARTYNYYHYWYFDVWGAGTTVTVSS
VL: DIQMTQSPASLSASVGETVTITCRASGNIHNYLSWYQQKQGKSPQLLVYNAETLADGVPSRFSGSGSGTQYSLKINNLQPEDFGSYYCQHFWSTPYTFGGGTKLEIK
B11 was tested, and the Kd (human KLRB1 ECD [3]) was 0.0147 nM.

B12: 62H1D6 (antibody, V domains shown)
VH: QVQLQQSGPELVRPGVSVKISCKGSGYTFTDYAMHWVKQSHAKSLEWIGVISTYYGNTNYNQKFKGRATMTVDKSSSTAYMELARLTSEDSAIYYCAREYGNYPYYYAMDYWGQGTSVTVSS
VL: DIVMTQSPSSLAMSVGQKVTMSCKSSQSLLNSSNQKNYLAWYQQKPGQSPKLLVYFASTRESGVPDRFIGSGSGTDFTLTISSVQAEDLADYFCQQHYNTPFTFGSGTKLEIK
Work on B12 yielded a Kd (human KLRB1 ECD [3]) of 7.03 nM.

B13: Hu50A8F2-01 (antibody, V domains shown)
VH: QVQLVQSGAEVKKPGASVKVSCKASGYTFIDYYINWVRQAPGQGLEWMGWIFPGSGHTKYNENFKGRVTMTRDTSTSTVYMELSSLRSEDTAVYYCARGDRSALGYFDYWGQGTTVTVSS
VL: DIQMTQSPSSLSASVGDRVTITCTASSSVSSTYLHWYQQKPGKAPKLLIYSTSNLASGVPSRFSGSGSGTDFTLTISSLQPEDFATYYCHQYHRSPLTFGQGTKLEIK
With B13 the EC50 (human KLRB1 ECD [11]) was 0.0197 nM, the binding result [12] was “no binding” and the EC50 (human KLRB1 on CHO-K1 [13]) was 5.54 nM. For the same binder, the Kd (human KLRB1 ECD [14]) was 1.55 nM.

B14: Hu50A8F2-03 (antibody, V domains shown)
VH: QVQLVQSGAEVKKPGASVKVSCKASGYTFIDYYINWVRQAPGQGLEWMGWIFPGSGHTKYNENFKGRVTMTRDTSTSTVYMELSSLRSEDTAVYYCARGDRSALGYFDYWGQGTTVTVSS
VL: DIQLTQSPSSLSASVGDRVTITCTASSSVSSTYLHWYQQKPGKSPKLLIYSTSNLASGVPSRFSGSGSGTDYTLTISSLQPEDFATYYCHQYHRSPLTFGQGTKLEIK
In the case of B14, the EC50 (human KLRB1 ECD [11]) is reported as 0.0113 nM, the binding result [12] is reported as “no binding” and the EC50 (human KLRB1 on CHO-K1 [13]) is reported as 5.17 nM. It also gave a Kd (human KLRB1 ECD [14]) of 0.665 nM.

B15: Hu50A8F2-06 (antibody, V domains shown)
VH: QVQLVQSGAEVKKPGASVKVSCKASGYTFIDYYINWVRQAPGQGLEWMGWIFPGSGHTKYNENFKGKVTMTVDTSTSTVYMELSSLRSEDTAVYYCARGDRSALGYFDYWGQGTTVTVSS
VL: DIQMTQSPSSLSASVGDRVTITCTASSSVSSTYLHWYQQKPGKAPKLLIYSTSNLASGVPSRFSGSGSGTDYTLTISSLQPEDFATYYCHQYHRSPLTFGQGTKLEIK
In the case of B15, the EC50 (human KLRB1 ECD [11]) is reported as 0.0236 nM, the binding result [12] is reported as “no binding” and the EC50 (human KLRB1 on CHO-K1 [13]) is reported as 5.44 nM. The Kd (human KLRB1 ECD [14]) was 0.828 nM.

B16: 47A5H2 chimeric (antibody, V domains shown)
VH: QVQLQQPGAELVRPGASVKLSCKGSGYSFTGYWMHWVKQRPGQGLEWIGMIHPSDSETRLNQKFKDKATLTVDKSSSTTYMQLSSPTSEDSAVYYCASEGLRRGSFAYWGQGTLVTVSA
VL: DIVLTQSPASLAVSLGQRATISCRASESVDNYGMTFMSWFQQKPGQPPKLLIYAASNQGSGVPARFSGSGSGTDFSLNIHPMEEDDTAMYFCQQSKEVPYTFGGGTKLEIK
B16 gave an IC50 (human KLRB1 on CHO-K1 [4]) of 2.54 nM, a Kd (cynomolgus KLRB1 ECD [5]) of 6.61 nM and a Kd (human KLRB1 ECD [3]) of 0.306 nM. It also gave an EC50 (human KLRB1 ECD [6]) of 0.0221 nM, an EC50 (cynomolgus KLRB1 ECD [7]) of 0.0182 nM and an EC50 [8] of 2.59 nM. For the same binder, the Kd (human KLRB1 ECD [9]) was 0.712 nM and the EC50 (human KLRB1 on CHO-K1 [10]) was 1.84 nM.

B17: 13H2D11 (antibody, V domains shown)
VH: QVQLQQPGAELVRPGASVKLSCKASGYSFTSYWMNWVKQRPGQGLEWIGMIHPSDSETRLNQKFKDKATLTVDKSSSTAYMQLSSPTSEDSAVYYCASEGFRRGSFAYWGQGTLVTVSA
VL: not shown
In the case of B17, the Kd (human KLRB1 ECD [3]) is reported as 17.1 nM.
